{"source": "patent US7250505", "key": {"[1]": {"target": "fluorescein-labeled APP peptide (Mus musculus (Mouse)) (UniProt P12023)", "assay": "fluorescence polarization, about 1 nM fluorescein-labeled APP peptide titrated with GST-PTB"}, "[2]": {"target": "APP peptide with arginine in place of Pro-2", "assay": "substitution scan on a cellulose peptide array, radiolabeled GST-PTB"}, "[3]": {"target": "APP peptide with lysine in place of Pro-2", "assay": "substitution scan on a cellulose peptide array, radiolabeled GST-PTB"}, "[4]": {"target": "APP peptide with isoleucine in place of Pro-2", "assay": "substitution scan on a cellulose peptide array, radiolabeled GST-PTB"}, "[5]": {"target": "APP synthetic peptide containing the NPXY region (non-phosphorylated) (Mus musculus (Mouse)) (UniProt P12023)", "assay": "fluorescence polarization"}, "[6]": {"target": "GST-mDab1 PTB domain fusion protein (mouse)", "assay": "fluorescence polarization competition"}, "[7]": {"target": "GST-mDab1 PTB domain fusion protein (mouse)", "assay": "fluorescence polarization competition against the fluorescein-labeled APP peptide, 1.1 µM PTB domain"}, "activated Src (Src527F)": {"target": "activated Src (Src527F) (UniProt P00523)", "assay": "co-immunoprecipitation with anti-Src from Rat-1 fibroblasts overexpressing both, immunoblot"}}, "data": [{"substance": "GST-mDab1 PTB domain fusion protein (from UniProt O75553 29-197)", "values": [{"measurement": "Kd", "setting": "[1]", "result": 550, "unit": "nM"}, {"measurement": "percent binding against the wild-type APP peptide", "setting": "[2]", "result": 40, "unit": "%"}, {"measurement": "percent binding against the wild-type APP peptide", "setting": "[3]", "result": 40, "unit": "%"}, {"measurement": "percent binding against the wild-type APP peptide", "setting": "[4]", "result": 40, "unit": "%"}, {"measurement": "Kd", "setting": "[5]", "result": 500, "unit": "nM"}]}, {"substance": "phosphorylated APP peptide (from UniProt P12023 754-770)", "values": [{"measurement": "fold reduction of affinity against the non-phosphorylated APP peptide", "setting": "[6]", "result": 250, "unit": "fold"}, {"measurement": "competitor concentration of equal effect", "setting": "[7]", "result": 500, "unit": "µM"}]}, {"substance": "APP synthetic peptide containing the NPXY region (non-phosphorylated) (from UniProt P12023 754-770)", "values": [{"measurement": "competitor concentration of equal effect", "setting": "[7]", "result": 2, "unit": "µM"}]}, {"substance": "mDab1 p80 (mDab555 product), tyrosine phosphorylated (from UniProt P97318 1-588)", "values": [{"measurement": "percent of the phosphorylated mDab1 of the total cell lysate immunoprecipitated with Src", "setting": "activated Src (Src527F)", "result": 1, "unit": "%"}]}]}
